Results from US20250353884A1.

Target: T1, Chim^C::mCH
T1 sequence: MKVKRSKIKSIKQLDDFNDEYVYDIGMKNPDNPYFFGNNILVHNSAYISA
Assay: cell-based or functional assay

B1: mTQ::Chim^N (protein, not shown: large carriers)
chain: SETGDTIHKTNWGELTVEELFNRGTRYWSEDNSKEYSANDELKVLTFDPVKDEAYYGNINYIYRHKVSKEQWEIEDEAGNTIRVTGDHSIMIERDGQLMDVKPRDMLDTDVLIVVDHN
  Kapp of the PTS reaction, pH 6.0: 0.0107 s⁻¹
  Kapp of the PTS reaction, pH 6.5: 0.00807 s⁻¹
  Kapp of the PTS reaction, pH 7.0: 0.00724 s⁻¹
